Measured values from US20240116985A1 (published 2024).
Starred links: 1 amine or outer side, 2 acyl side, 3 side chain; linkers in the order of their positions; H or OH if unused. Positions of bridges follow the written chain, without caps; N, C: chain ends. Non-standard residues stand in square brackets, D forms with d. Primed or numbered codes have the meaning given here. B5(23) = 2-amino-2-(pent-4-en-1-yl)hept-6-enoic acid (2,2-bis(4-pentenyl)glycine), stitching residue, C=CCCCC(CCCC=C)(N[*:1])C(=O)[*:2]; B5(4) = 2,2-bis(4-pentenyl)glycine = 2-amino-2-(pent-4-en-1-yl)hept-6-enoic acid (stitching residue), C=CCCCC(CCCC=C)(N[*:1])C(=O)[*:2]; B5″ = 2,2-bis(4-pentenyl)glycine, stitching residue, C=CCCCC(CCCC=C)(N[*:1])C(=O)[*:2]; Bta = N[C@@H](Cc1csc2ccccc12)C(=O)O; αAllylPro = C=CC[C@@]1(C(=O)O)CCCN1; S8 = C=CCCCCCC[C@](C)(N)C(=O)O; NMeS = CN[C@@H](CO)C(=O)O

T1: full-length beta-Catenin (Uniprot ID P35222) (Homo sapiens (Human), UniProt P35222 1-781)
T1 construct: also called bCat; B-Catenin
T1 sequence: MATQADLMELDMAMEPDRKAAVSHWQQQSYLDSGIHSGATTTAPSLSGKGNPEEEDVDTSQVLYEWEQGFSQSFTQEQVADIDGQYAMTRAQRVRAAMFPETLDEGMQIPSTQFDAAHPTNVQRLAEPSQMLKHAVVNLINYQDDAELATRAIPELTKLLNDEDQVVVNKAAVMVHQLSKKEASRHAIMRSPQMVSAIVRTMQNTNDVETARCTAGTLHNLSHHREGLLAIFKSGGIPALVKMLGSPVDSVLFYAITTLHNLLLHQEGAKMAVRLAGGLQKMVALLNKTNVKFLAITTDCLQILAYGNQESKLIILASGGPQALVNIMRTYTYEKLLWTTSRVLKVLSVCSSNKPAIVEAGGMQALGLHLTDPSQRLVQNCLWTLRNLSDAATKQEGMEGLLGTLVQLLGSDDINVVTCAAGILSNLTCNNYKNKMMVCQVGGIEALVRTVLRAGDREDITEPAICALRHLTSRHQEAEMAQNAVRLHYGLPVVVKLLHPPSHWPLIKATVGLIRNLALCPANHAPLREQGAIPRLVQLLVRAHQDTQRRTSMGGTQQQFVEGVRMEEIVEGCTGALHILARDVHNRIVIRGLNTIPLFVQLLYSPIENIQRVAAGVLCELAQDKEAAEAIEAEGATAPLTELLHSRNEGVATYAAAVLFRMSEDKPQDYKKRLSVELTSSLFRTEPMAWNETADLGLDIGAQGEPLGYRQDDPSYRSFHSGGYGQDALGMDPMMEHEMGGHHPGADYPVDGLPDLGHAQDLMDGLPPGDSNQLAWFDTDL

T2: full-length beta-Catenin (Uniprot ID P35222) (Homo sapiens (Human), UniProt P35222 2-781)
T2 construct: also called bCat; B-Catenin
T2 sequence: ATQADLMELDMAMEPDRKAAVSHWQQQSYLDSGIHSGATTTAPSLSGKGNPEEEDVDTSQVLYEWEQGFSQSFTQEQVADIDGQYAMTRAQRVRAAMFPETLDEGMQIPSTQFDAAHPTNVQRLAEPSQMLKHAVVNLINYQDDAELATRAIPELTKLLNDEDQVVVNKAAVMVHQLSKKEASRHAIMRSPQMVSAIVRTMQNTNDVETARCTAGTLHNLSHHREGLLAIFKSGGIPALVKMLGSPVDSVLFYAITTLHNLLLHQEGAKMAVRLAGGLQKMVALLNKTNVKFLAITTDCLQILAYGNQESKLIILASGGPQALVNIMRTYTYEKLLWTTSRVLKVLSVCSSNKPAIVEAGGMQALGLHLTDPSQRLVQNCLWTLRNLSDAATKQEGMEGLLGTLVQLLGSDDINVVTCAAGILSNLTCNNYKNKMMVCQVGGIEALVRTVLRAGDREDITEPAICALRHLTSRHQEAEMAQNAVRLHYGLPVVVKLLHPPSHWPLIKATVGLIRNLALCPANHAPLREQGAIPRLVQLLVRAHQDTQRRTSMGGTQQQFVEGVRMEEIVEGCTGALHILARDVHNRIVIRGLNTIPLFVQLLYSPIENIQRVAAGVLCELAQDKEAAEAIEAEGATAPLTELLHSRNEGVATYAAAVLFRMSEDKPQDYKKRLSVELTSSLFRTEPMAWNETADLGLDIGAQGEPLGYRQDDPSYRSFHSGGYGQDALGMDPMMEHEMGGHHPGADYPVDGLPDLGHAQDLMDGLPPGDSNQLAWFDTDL

T3: B-cat-Halo (NanoBRET construct expressed in HEK293 cells) (UniProt P35222 1-781, HaloTag NanoBRET 618 Ligand bound in the assay)
T3 sequence (looked up): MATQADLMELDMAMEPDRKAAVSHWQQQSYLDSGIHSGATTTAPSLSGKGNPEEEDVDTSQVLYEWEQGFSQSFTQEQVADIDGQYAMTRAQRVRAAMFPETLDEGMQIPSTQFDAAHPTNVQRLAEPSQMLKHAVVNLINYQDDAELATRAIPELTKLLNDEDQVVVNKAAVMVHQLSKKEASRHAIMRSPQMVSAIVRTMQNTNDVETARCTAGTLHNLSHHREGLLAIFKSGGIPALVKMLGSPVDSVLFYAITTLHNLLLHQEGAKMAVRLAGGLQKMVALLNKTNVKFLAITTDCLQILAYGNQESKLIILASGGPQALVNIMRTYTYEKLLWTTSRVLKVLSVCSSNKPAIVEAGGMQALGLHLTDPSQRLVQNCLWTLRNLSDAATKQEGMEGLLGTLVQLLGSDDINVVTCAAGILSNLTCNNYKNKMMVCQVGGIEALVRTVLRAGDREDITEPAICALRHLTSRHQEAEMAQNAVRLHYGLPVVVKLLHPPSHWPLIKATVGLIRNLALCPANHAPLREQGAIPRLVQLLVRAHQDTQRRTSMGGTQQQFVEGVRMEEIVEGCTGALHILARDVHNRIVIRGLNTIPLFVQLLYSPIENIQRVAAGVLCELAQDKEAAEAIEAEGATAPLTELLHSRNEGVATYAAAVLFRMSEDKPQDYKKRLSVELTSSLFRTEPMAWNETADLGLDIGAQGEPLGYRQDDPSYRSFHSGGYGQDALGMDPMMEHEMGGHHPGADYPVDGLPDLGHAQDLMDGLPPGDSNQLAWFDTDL

B1: I-751 (peptide)
peptide: Ac-[αAllylPro]DL[B5(4)]DEAAFN[S8]F[Bta]S-NH2
modifications: staple 1-4, 4-11; also: olefin E/Z not assigned, later-eluting staple isomer
notes: Stapled peptide; shares its description with I-750, later eluting HPLC peak (staple isomer composition); also called Ac-PL3-Asp-Leu-B5-Asp-Glu-Ala-Ala-Phe-Asn-S8-Phe-BztA-Ser-NH2
B2: I-758 (peptide)
peptide: Ac-[αAllylPro]DL[B5(4)]DEAAFN[S8]F[Bta][dN]-NH2
modifications: staple 1-4, 4-11; also: later eluting HPLC peak (staple isomer)
notes: Stapled peptide; also called Ac-PL3-Asp-Leu-B5-Asp-Glu-Ala-Ala-Phe-Asn-S8-Phe-BztA-dAsn-NH2
B3: I-755 (peptide)
peptide: Ac-[αAllylPro]DL[B5(4)]DEAAFN[S8]F[Bta][dT]-NH2
modifications: staple 1-4, 4-11; also: later eluting HPLC peak (staple isomer)
notes: Stapled peptide; also called Ac-PL3-Asp-Leu-B5-Asp-Glu-Ala-Ala-Phe-Asn-S8-Phe-BztA-dThr-NH2
B4: I-752 (peptide)
peptide: Ac-[αAllylPro]DL[B5(4)]DEAAFN[S8]F[Bta]N-NH2
modifications: staple 1-4, 4-11; also: olefin E/Z not assigned, earlier-eluting staple isomer
notes: Stapled peptide; also called Ac-PL3-Asp-Leu-B5-Asp-Glu-Ala-Ala-Phe-Asn-S8-Phe-BztA-Asn-NH2
B5: I-757 (peptide)
peptide: Ac-[αAllylPro]DL[B5(4)]DEAAFN[S8]F[Bta][dN]-NH2
modifications: staple 1-4, 4-11; also: earlier eluting HPLC peak (staple isomer)
notes: Stapled peptide; same description as I-758, earlier eluting HPLC peak (staple isomer composition); also called Ac-PL3-Asp-Leu-B5-Asp-Glu-Ala-Ala-Phe-Asn-S8-Phe-BztA-dAsn-NH2
B6: I-754 (peptide)
peptide: XDLXDEAAFNXFXT
modifications: not fully specified; Ac-PL3-Asp-Leu-B5-Asp-Glu-Ala-Ala-Phe-Asn-S8-Phe-BztA-dThr-NH2: N-terminal acetyl; C-terminal amide; PL3 at 1, B5 at 4, S8 at 11 (stapled 1-4 and 4-11 by olefin metathesis); BztA at 13; D-Thr at 14
notes: as for B3
B7: I-753 (peptide)
peptide: Ac-[αAllylPro]DL[B5(4)]DEAAFN[S8]F[Bta]N-NH2
modifications: staple 1-4, 4-11; also: olefin E/Z not assigned, later-eluting staple isomer
notes: as for B4
B8: I-759 (peptide)
peptide: Ac-[αAllylPro]DL[B5(4)]DEAAFN[S8]F[Bta][NMeS]-NH2
modifications: staple 1-4, 4-11; also: earlier eluting HPLC peak (staple isomer)
notes: Stapled peptide; same description as I-760, earlier eluting HPLC peak (staple isomer composition); also called Ac-PL3-Asp-Leu-B5-Asp-Glu-Ala-Ala-Phe-Asn-S8-Phe-BztA-NMeS-NH2
B9: I-760 (peptide)
peptide: Ac-[αAllylPro]DL[B5″]DEAAFN[S8]F[Bta][NMeS]-NH2
modifications: staple 1-4, 4-11
notes: Stapled peptide; also called Ac-PL3-Asp-Leu-B5-Asp-Glu-Ala-Ala-Phe-Asn-S8-Phe-BztA-NMeS-NH2
B10: I-756 (peptide)
peptide: Ac-[αAllylPro]DL[B5(4)]DEAAFN[S8]F[Bta][dS]-NH2
modifications: staple 1-4, 4-11
notes: Stapled peptide; also called Ac-PL3-Asp-Leu-B5-Asp-Glu-Ala-Ala-Phe-Asn-S8-Phe-BztA-dSer-NH2

Molecular target: T1, full-length beta-Catenin (Uniprot ID …)
Assay: fluorescence polarization competition; full-length beta-catenin with 5FAM-TCF4(10-53) probe as competitor
Method: (§1) The plate was incubated protected from light for 60 minutes at 20° C. prior to read. Reads were performed on a CLARIOstar plate reader (BMG Labtech) in duplicate, and data were fitted to a 1:1 binding model with hill slope using an in-house script. All provided concentrations are final concentrations.

IC50 [nM]	Binder
29	B1
47	B2
88	B3
16	B4
64	B5
115	B6
14	B7
1530	B8
608	B9
56	B10

Molecular target: T2, full-length beta-Catenin (Uniprot ID …)
Assay: fluorescence polarization competition; 10 nM full-length beta-catenin + 10 nM 5FAM-TCF4(10-53) probe, peptide titrated
Method: as §1

EC50 [nM]	Binder
94	Ac-[αAllylPro]DA[B5(23)]DEAAFQ[S8]F[Bta]Q-NH2 (staple 1-4, 4-11, Stapled (stitched) peptide) [I-406]
50	Ac-[αAllylPro]DV[B5(23)]DEAAFQ[S8]F[Bta]Q-NH2 (staple 1-4, 4-11, Stapled (stitched) peptide) [I-410]
128	Ac-[αAllylPro]DA[B5(23)]DEAAFT[S8]F[Bta]H-NH2 (staple 1-4, 4-11, Stapled (stitched) peptide) [I-420]

Molecular target: T3, B-cat-Halo (NanoBRET construct …)
Assay: cell-based or functional assay

NanoBRET Abs IC50 [nM]	Binder
7100	B1
9900	B4
10000	B7
